Data from patent publication US7276481B2, “Method and composition for treatment of skeletal dysplasias” (ProChon Biotech Ltd., priority 2001, dated 2007).

The sequences below were run against T1, natriuretic peptide receptor on C3H10T1/2 cells (Mus musculus, UniProt Q6VVW5) (assay: Biotrak enzyme immunoassay of cGMP elicited on C3H10T1/2 cells). Conditions: not given.
T1 construct: endogenous in cells; host or cells: C3H10T1/2 cells
T1 sequence (Q6VVW5 23-1047 limits assumed): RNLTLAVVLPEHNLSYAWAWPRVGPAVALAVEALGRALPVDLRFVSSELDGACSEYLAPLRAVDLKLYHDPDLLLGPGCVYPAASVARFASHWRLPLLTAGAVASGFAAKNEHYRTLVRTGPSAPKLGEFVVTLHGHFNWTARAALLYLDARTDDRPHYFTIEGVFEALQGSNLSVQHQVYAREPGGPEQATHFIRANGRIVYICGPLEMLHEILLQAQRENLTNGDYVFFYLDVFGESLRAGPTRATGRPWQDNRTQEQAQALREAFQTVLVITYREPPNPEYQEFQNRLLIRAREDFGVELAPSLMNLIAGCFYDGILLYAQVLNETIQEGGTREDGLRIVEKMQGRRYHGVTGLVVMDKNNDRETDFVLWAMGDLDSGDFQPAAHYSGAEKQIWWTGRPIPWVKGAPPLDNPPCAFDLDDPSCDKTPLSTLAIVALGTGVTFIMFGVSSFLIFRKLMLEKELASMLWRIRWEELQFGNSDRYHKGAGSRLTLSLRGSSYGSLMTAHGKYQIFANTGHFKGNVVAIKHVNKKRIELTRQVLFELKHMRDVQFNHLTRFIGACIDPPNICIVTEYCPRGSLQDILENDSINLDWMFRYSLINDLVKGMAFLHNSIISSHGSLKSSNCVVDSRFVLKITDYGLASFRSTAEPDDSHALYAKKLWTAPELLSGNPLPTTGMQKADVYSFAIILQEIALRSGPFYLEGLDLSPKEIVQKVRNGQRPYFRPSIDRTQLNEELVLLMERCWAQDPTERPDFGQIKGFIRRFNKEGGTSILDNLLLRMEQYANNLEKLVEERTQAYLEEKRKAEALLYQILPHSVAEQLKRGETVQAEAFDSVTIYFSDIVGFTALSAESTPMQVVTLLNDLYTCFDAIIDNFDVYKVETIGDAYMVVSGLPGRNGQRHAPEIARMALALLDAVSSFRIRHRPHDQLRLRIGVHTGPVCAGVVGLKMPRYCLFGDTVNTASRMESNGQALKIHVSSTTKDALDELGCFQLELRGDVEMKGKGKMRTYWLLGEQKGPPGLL
Type: cell-based
Description: All peptide variants were analyzed for activity using the Biotrak enzyme immunoassay (EIA, Amersham) that measures the amount of secondary messenger, cyclic GMP (cGMP), elicited after activation of the natriuretic peptide receptor by the peptide on C3H10T1/2 cells. Amino acid substitutions are marked in bold and underlined. The assay was performed for CNP and variants at a concentration of 10^−6 M. The values are given as the percent of relative binding compared to CNP, where CNP 1-22 and CNP 5-22 yield 100% binding.

| activity in cGMP assay (in words) | Sequence |
| --- | --- |
| active | C F G L K L D R I G S M S G L G C (CFGLKLDRIGSMSGLGC) [SEQ ID NO:2] |

Same assay, conditions: Table 2; cGMP assay, compared to CNP

| cGMP response as percent of CNP | Sequence |
| --- | --- |
| 26.5% | C H F G L K L D R I G A Q S - - C (CHFGLKLDRIGAQSC; peptide variant) [SEQ ID NO:13] |
| 11.9% | C H F G L K L D R I G S - - - - C (CHFGLKLDRIGSC; peptide variant) [SEQ ID NO:20] |
| 29.9% | C F G L K L D R I G S M S - - - C (CFGLKLDRIGSMSC; peptide variant) [SEQ ID NO:14] |
| 3.4% | C F G L K L D R I G A M - - - - C (CFGLKLDRIGAMC) [SEQ ID NO:17] |
| 11.8% | C F G L K L D R I G S Q - - - - C (CFGLKLDRIGSQC; peptide variant) [SEQ ID NO:18] |
| 127.4% | C F G L K L D R I G S M S G L G C (CFGLKLDRIGSMSGLGC) [SEQ ID NO:2] |
| 20.6% | C F G L K L D R I G A Q S - - - C (CFGLKLDRIGAQSC; peptide variant) [SEQ ID NO:15] |
| 3.8% | C F G L K L D R I G A Q - - - - C (CFGLKLDRIGAQC; peptide variant) [SEQ ID NO:19] |
| 43.8% | C A G L K L D R I G S M S G L G C (CAGLKLDRIGSMSGLGC; peptide variant) [SEQ ID NO:6] |
| 25.9% | C H F G L K L D R I G S M S - - C (CHFGLKLDRIGSMSC; peptide variant) [SEQ ID NO:11] |
| 22.7% | C F G L K L D R I G S - - - - - C (CFGLKLDRIGSC; peptide variant) [SEQ ID NO:21] |
| 49.1% | C F G L K L A R I G S M S G L G C (CFGLKLARIGSMSGLGC; peptide variant) [SEQ ID NO:7] |
| 4.2% | C F G L K L D R I G - - - - - - C (CFGLKLDRIGC; peptide variant) [SEQ ID NO:22] |

| Sequence | cGMP response as percent of CNP |
| --- | --- |
| C H F G L K L D R I - - - - - - C (CHFGLKLDRIC; peptide variant) [SEQ ID NO:23] | 3.8% |

Same assay, conditions: Table 3; cGMP values at 10^-6 M, compared to CNP (CNP 1-22 and CNP 5-22 = 100%)

| cGMP response as percent of CNP | Sequence |
| --- | --- |
| 5.421% | C F G L M L D R I G S M S G L G C (CFGLMLDRIGSMSGLGC; peptide variant) [SEQ ID NO:44] |
| 3.933% | C A G L K L D R I G S A S G L G C (CAGLKLDRIGSASGLGC; peptide variant) [SEQ ID NO:25] |
| 21.543% | C F G L K L D K I G S M S G L G C (CFGLKLDKIGSMSGLGC; peptide variant) [SEQ ID NO:49] |
| −10.355% | C A G L K L A R I G S A S G L G C (CAGLKLARIGSASGLGC; peptide variant) [SEQ ID NO:27] |
| −1.111% | C F G L K L D R I G S M S G A G C (CFGLKLDRIGSMSGAGC; peptide variant) [SEQ ID NO:63] |
| −6.903% | C T G L K L D R I G S M S G L G C (CTGLKLDRIGSMSGLGC; peptide variant) [SEQ ID NO:34] |
| 5.755% | C F G L K L A R I G S A S G L G C (CFGLKLARIGSASGLGC; peptide variant) [SEQ ID NO:26] |
| 64.212% | C F G V K L D R I G S M S G L G C (CFGVKLDRIGSMSGLGC; peptide variant) [SEQ ID NO:42] |
| −10.145% | C F G L K L D R I G S M S G G G C (CFGLKLDRIGSMSGGGC; peptide variant) [SEQ ID NO:64] |
| 100.000% | C F G L K L D R I G S M S G L G C (CFGLKLDRIGSMSGLGC) [SEQ ID NO:2] |
| 29.744% | C F G L L L D R I G S M S G L G C (CFGLLLDRIGSMSGLGC; peptide variant) [SEQ ID NO:43] |
| 27.430% | C F G L K L D R I G N M S G L G C (CFGLKLDRIGNMSGLGC; peptide variant) [SEQ ID NO:57] |
| 5.740% | C V G L K L D R I G S M S G L G C (CVGLKLDRIGSMSGLGC; peptide variant) [SEQ ID NO:32] |
| 27.811% | C F G L K L D R I G G M S G L G C (CFGLKLDRIGGMSGLGC; peptide variant) [SEQ ID NO:55] |
| 11.259% | C F G L K A D R I G S M S G L G C (CFGLKADRIGSMSGLGC; peptide variant) [SEQ ID NO:45] |
| 5.699% | C H G L K L D R I G S M S G L G C (CHGLKLDRIGSMSGLGC; peptide variant) [SEQ ID NO:33] |
| 13.482% | C F G L K L D H I G S M S G L G C (CFGLKLDHIGSMSGLGC; peptide variant) [SEQ ID NO:48] |
| 9.450% | C F G L K L E R I G S M S G L G C (CFGLKLERIGSMSGLGC; peptide variant) [SEQ ID NO:35] |
| 17.235% | C F G L K L N R I G S M S G L G C (CFGLKLNRIGSMSGLGC; peptide variant) [SEQ ID NO:37] |
| 47.395% | C F G I K L D R I G S M S G L G C (CFGIKLDRIGSMSGLGC; peptide variant) [SEQ ID NO:41] |
| −1.945% | C F G L K L D R T G S M S G L G C (CFGLKLDRTGSMSGLGC; peptide variant) [SEQ ID NO:53] |
| −17.095% | C F G L K L Q R I G S M S G L G C (CFGLKLQRIGSMSGLGC; peptide variant) [SEQ ID NO:36] |
| 66.222% | C F G L K L D R I G S H S G L G C (CFGLKLDRIGSHSGLGC; peptide variant) [SEQ ID NO:66] |
| −10.834% | C W G L K L D R I G S M S G L G C (CWGLKLDRIGSMSGLGC; peptide variant) [SEQ ID NO:31] |
| −1.341% | C M G L K L D R I G S M S G L G C (CMGLKLDRIGSMSGLGC; peptide variant) [SEQ ID NO:30] |
| −3.474% | C F G L K L D R I G S M S G Q G C (CFGLKLDRIGSMSGQGC; peptide variant) [SEQ ID NO:61] |
| 7.784% | C F G L K L M R I G S M S G L G C (CFGLKLMRIGSMSGLGC; peptide variant) [SEQ ID NO:39] |
| 7.228% | C F G L K L I R I G S M S G L G C (CFGLKLIRIGSMSGLGC; peptide variant) [SEQ ID NO:38] |
| 3.058% | C H G L K L D R I G S A S G L G C (CHGLKLDRIGSASGLGC; peptide variant) [SEQ ID NO:70] |
| 14.177% | C F G L K L D R L G S M S G L G C (CFGLKLDRLGSMSGLGC; peptide variant) [SEQ ID NO:51] |

Same assay, conditions: Table 3; cGMP values at 10^-6 M, compared to CNP (CNP 1-22 and CNP 5-22 = 100%); listed as CNP 5-22

| cGMP response as percent of CNP | Sequence |
| --- | --- |
| 100% | C F G L K L D R I G S M S G L G C (CFGLKLDRIGSMSGLGC) [SEQ ID NO:2] |

Same assay, conditions: listed as SEQ ID NO: 2

| activity in cGMP assay (in words) | Sequence |
| --- | --- |
| as active as the native CNP1-22 | C F G L K L D R I G S M S G L G C (CFGLKLDRIGSMSGLGC) [SEQ ID NO:2] |
